Where “and” joins values, the source holds several entries; their conditions need not be identical. Equal entries are not always repeated.
What was measured:
[1] = target: the molecule itself; experiment: SEC-MALS; SEC-LS (RALS, RI, UV) on Superdex 200 Increase 10/300 run at room temperature; hnRNPK sample kept at 4 °C (vial holder at 4 °C), low concentration
[2] = target: the molecule itself; experiment: SEC-MALS; SEC-LS (RALS, RI, UV) on Superdex 200 Increase 10/300 at room temperature; hnRNPK sample incubated at room temperature

B1: Heterogeneous nuclear ribonucleoprotein K (hnRNPK), full-length wild type with an additional N-terminal glycine (natural protein)
chain: not shown
notes: additional glycine residue at the N-terminus, told in words; heterogeneous nuclear ribonucleoprotein K, full-length wild type; theoretical molar mass with the extra glycine 51,033 Da; also called H-hnRNPK; hydrogenated hnRNPK; source: E. coli Rosetta2 (DE3), purified (Ni Hi-trap, TEV cleavage, second Hi-trap, Superdex 200); not shown: His6, N-terminal, cleaved; eGFP, N-terminal, cleaved
- stoichiometry N [1]: 1.98 hnRNPK molecules per particle (measured MM : theoretical MM)
- stoichiometry N [2]: 2.88 hnRNPK molecules per particle (measured MM : theoretical MM) and 1.53 hnRNPK molecules per particle (measured MM : theoretical MM)
